In the supplement of paper PMC10724198:
± gives the standard deviation of the averaged measurements.

How the values were obtained:
Saccharomyces cerevisiae [1] = assay: protein stability index of tFT-peptide fusion (C-terminal peptide) (PSI (0-1 scale)); higher = more stable (slower turnover); details: genetic background: wild type; temperature: 30 C
Saccharomyces cerevisiae [2] = assay: as above
Method: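 MPS profiling in S. cerevisiae of the tFT-X12 degron library: putative degron peptides plus stable controls, 12 aa, fused to the C-terminus of a sfGFP-mCherry timer. Cells are FACS-sorted into 8 mCherry/sfGFP bins and deep-sequenced. PSI runs from 0 (unstable) to 1 (stable). Backgrounds are wild type, das1Δ and doa10Δ at 30 °C, and wild type, das1Δ, cdc34-1 and cdc53-1 at 37 °C; 2-3 technical replicates each.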

[3] = genetic background: cdc34-1, temperature: 37 C
[4] = genetic background: cdc53-1, temperature: 37 C
[5] = genetic background: das1 deletion, temperature: 30 C
[6] = genetic background: das1 deletion, temperature: 37 C
[7] = genetic background: doa10 deletion, temperature: 30 C
[8] = genetic background: wild type, temperature: 30 C
[9] = genetic background: wild type, temperature: 37 C
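Also: PSI is a weighted mean of sequencing reads over stability bins, variants kept only with over 10 reads, mCherry proximal and sfGFP distal, peptide attached via GGGS linker.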

Sequence	protein stability index (Saccharomyces cerevisiae [1])	protein stability index (Saccharomyces cerevisiae [2]; [3])	protein stability index (Saccharomyces cerevisiae [2]; [4])	protein stability index (Saccharomyces cerevisiae [2]; [5])	protein stability index (Saccharomyces cerevisiae [2]; [6])	protein stability index (Saccharomyces cerevisiae [2]; [7])	protein stability index (Saccharomyces cerevisiae [2]; [8])	protein stability index (Saccharomyces cerevisiae [2]; [9])
LASSCYRHLLVV	0.137 ± 0.002	0.242 ± 0.0047	0.323 ± 0.0065	0.289 ± 0.029	0.4343 ± 0.0036	0.0628 ± 0.016	0.0775 ± 0.017	0.078 ± 0.044
RIIKIRAISINL	0.501 ± 0.022	0.575 ± 0.062	0.66 ± 0.065	0.523 ± 0.023	0.607 ± 0.061	0.454 ± 0.03	0.468 ± 0.016	0.609 ± 0.03
YVRHDKLILSFC	0.489 ± 0.013	0.492 ± 0.026	0.529 ± 0.041	0.427 ± 0.021	0.5562 ± 0.0027	0.3915 ± 0.002	0.414 ± 0.019	0.54 ± 0.011
YHDKLRAIEKFF	0.331 ± 0.065	0.669 ± 0.03	0.725 ± 0.0075	0.635 ± 0.018	0.74 ± 0.03	0.199 ± 0.019	0.219 ± 0.04	0.49 ± 0.0052
GSLFANYNLKLF	0.163 ± 0.025	0.62289 ± 0.00034	0.724 ± 0.017	0.648 ± 0.06	0.771 ± 0.033	0.108 ± 0.017	0.106 ± 0.028	0.211 ± 0.013
CLNPCVRWDGHV	0.708 ± 0.0077	0.739 ± 0.065	0.7589 ± 0.0016	0.651 ± 0.039	0.77 ± 0.0062	0.661 ± 0.05	0.687 ± 0.028	0.732 ± 0.011
PLLLFFFPRLLF	0.475 ± 0.024	0.579 ± 0.046	0.62 ± 0.025	0.535 ± 0.027	0.6481 ± 0.0026	0.39 ± 0.0054	0.382 ± 0.019	0.559 ± 0.025
VFSFGLLFQVCR	0.502 ± 0.019	0.598 ± 0.04	0.625 ± 0.025	0.435 ± 0.022	0.6144 ± 0.0034	0.4081 ± 0.0038	0.452 ± 0.025	0.631 ± 0.053
CFCLFVFFISSC	0.362 ± 0.057	0.2112 ± 0.00091	0.414 ± 0.015	0.223 ± 0.033	0.459 ± 0.015	0.19 ± 0.019	0.233 ± 0.019	0.397 ± 0.015
PSPPPYAPPIPA	0.488 ± 0.0057	0.549 ± 0.03	0.611 ± 0.055	0.44 ± 0.023	0.5857 ± 0.0057	0.416 ± 0.019	0.447 ± 0.021	0.563 ± 0.02
GQFFRCWRRRLC	0.171 ± 0.081	0.634 ± 0.044	0.709 ± 0.0072	0.649 ± 0.03	0.72 ± 0.022	0.145 ± 0.019	0.166 ± 0.028	0.443 ± 0.011
IFFYQLYVDRLC	0.151 ± 0.059	0.227 ± 0.05	0.292 ± 0.0067	0.229 ± 0.035	0.412 ± 0.011	0.0857 ± 0.012	0.0803 ± 0.01	0.0746 ± 0.0054
AFRFLAVCVGCG	0.263 ± 0.068	0.144 ± 0.009	0.158 ± 0.013	0.218 ± 0.02	0.291 ± 0.0069	0.168 ± 0.0081	0.205 ± 0.018	0.24 ± 0.0071
LLFCFSVILFTC	0.147 ± 0.018	0.0922 ± 0.0021	0.189 ± 0.062	0.187 ± 0.033	0.291 ± 0.018	0.0562 ± 0.022	0.0652 ± 0.018	0.0808 ± 0.0077
LLSPFLLMLLFL	0.28 ± 0.004	0.4001 ± 0.0019	0.395 ± 0.0071	0.344 ± 0.007	0.432 ± 0.0046	0.221 ± 0.01	0.2 ± 0.02	0.317 ± 0.013
NWAIEIRSVKIV	0.261 ± 0.025	0.642 ± 0.066	0.701 ± 0.022	0.619 ± 0.04	0.7084 ± 0.007	0.148 ± 0.0038	0.183 ± 0.021	0.303 ± 0.015
WLVCAGWVVLSC	0.265 ± 0.033	0.153 ± 0.0026	0.2052 ± 0.00049	0.187 ± 0.023	0.2772 ± 0.0018	0.175 ± 0.0096	0.175 ± 0.026	0.222 ± 0.016
SGRFRAFVLRSM	0.476 ± 0.0099	0.692 ± 0.012	0.746 ± 0.01	0.646 ± 0.029	0.7 ± 0.036	0.272 ± 0.019	0.298 ± 0.035	0.56 ± 0.032
TYKHIVRVNKCE	0.318 ± 0.04	0.594 ± 0.031	0.684 ± 0.021	0.627 ± 0.033	0.727 ± 0.0073	0.179 ± 0.0066	0.184 ± 0.025	0.286 ± 0.0033
